Among the data in article PMC5806882, “Structural and biochemical characterization of the biuret hydrolase (BiuH) from the cyanuric acid catabolism pathway of Rhizobium leguminasorum bv. viciae 3841” (PLoS ONE, 2018) are Km, kcat and kcat/Km values, retold here.

Data set [1] relates to NC(=O)NC(N)=O. As to the kind of experiment: GDH-coupled steady-state kinetics (KM). It counts as biochemical, Rhizobium johnstonii. The following applies: active site.
Data set [2] deals with T1, NC(=O)NC(N)=O.
T1 construct: wild type, N-terminal 6xHis-tag
The data set is described as follows: GDH-coupled steady-state kinetics (KM). It counts as biochemical, Rhizobium johnstonii. The following applies: active site.

biuret hydrolase (BiuH) (Rhizobium johnstonii 3841; K142R), sequence (chain, as listed by the source K142R): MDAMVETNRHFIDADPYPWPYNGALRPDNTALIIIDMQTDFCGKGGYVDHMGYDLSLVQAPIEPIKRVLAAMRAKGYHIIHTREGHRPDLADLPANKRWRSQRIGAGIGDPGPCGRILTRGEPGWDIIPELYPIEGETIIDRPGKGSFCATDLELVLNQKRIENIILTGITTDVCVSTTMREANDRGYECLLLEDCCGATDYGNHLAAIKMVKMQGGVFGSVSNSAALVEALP
biuret hydrolase (BiuH) (Rhizobium johnstonii 3841; Q215N), sequence (chain, as listed by the source Q215N): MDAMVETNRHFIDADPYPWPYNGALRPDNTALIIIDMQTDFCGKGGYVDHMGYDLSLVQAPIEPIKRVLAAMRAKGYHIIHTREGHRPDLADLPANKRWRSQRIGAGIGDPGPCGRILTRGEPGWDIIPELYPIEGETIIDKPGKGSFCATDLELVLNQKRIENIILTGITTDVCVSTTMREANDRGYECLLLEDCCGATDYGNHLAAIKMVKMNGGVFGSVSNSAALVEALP
biuret hydrolase (BiuH) (Rhizobium johnstonii 3841; F41W), sequence (chain, as listed by the source F41W): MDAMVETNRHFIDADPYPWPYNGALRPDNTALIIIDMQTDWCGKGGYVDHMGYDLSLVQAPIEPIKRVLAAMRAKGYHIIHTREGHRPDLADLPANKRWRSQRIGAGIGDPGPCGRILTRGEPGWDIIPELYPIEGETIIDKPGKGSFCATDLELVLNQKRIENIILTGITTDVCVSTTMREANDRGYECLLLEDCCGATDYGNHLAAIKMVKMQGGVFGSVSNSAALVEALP
biuret hydrolase (BiuH) (Rhizobium johnstonii 3841), sequence (chain, as listed by the source): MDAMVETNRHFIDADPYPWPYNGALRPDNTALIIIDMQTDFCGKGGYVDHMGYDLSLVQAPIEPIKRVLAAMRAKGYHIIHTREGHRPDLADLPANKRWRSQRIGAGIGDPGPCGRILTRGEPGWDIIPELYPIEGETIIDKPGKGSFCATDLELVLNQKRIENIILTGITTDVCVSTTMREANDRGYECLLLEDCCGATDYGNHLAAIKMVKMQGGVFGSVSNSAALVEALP

“biuret hydrolase (BiuH) (Rhizobium johnstonii 3841; Q215N)”: in the data set on NC(=O)NC(N)=O [1], the Michaelis constant (Km) was determined as 48 ± 2 µM, the kcat was determined as 0.19 ± 0.002 s⁻¹ and the kcat/Km came out at 3960 M⁻¹ s⁻¹.
Consider “biuret hydrolase (BiuH) (Rhizobium johnstonii 3841)”, for which, in the data set on NC(=O)NC(N)=O [2], the Michaelis-Menten constant (Km) stood at 79 ± 7 µM, the kcat turned out to be 11.9 ± 0.3 s⁻¹ and the specificity constant (kcat/Km) amounted to 150000 M⁻¹ s⁻¹.
For “biuret hydrolase (BiuH) (Rhizobium johnstonii 3841; K142R)”, in the data set on NC(=O)NC(N)=O [1], the Km turned out to be 139 ± 8 µM, the kcat worked out at 0.07 ± 0.001 s⁻¹ and the catalytic efficiency (kcat/Km) stood at 504 M⁻¹ s⁻¹.
The corresponding values for “biuret hydrolase (BiuH) (Rhizobium johnstonii 3841; F41W)” are 127 ± 8 µM, 0.26 ± 0.003 s⁻¹ and 2050 M⁻¹ s⁻¹.

The Km is the concentration of substrate that gives half-maximal velocity. As usually defined, the kcat is the maximal rate divided by the concentration of active sites. Usually kcat/Km stands for the turnover number divided by the Michaelis constant.
